In the supplement of paper PMC9112550, “Optimization of the antimicrobial peptide Bac7 by deep mutational scanning” (BMC Biology, 2022):
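Further: peptides expressed intracellularly from a pBAD plasmid library in pooled LB shake-flask culture, induced with 0.3% L-arabinose, DNA abundance read by NGS, three biological replicates, DESeq2 with apeglm shrinkage.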

The sequences below were run on Escherichia coli TOP10 (assay: shrunken log2 fold change of peptide-encoding DNA abundance (4.5 h post-induction vs induction); higher = less antimicrobial activity (less host growth inhibition)). Details: time post-induction: 4.5 h; library: site-saturation at positions 5, 18, 19, 20.
With RRIRDRPPRLPRPRPRPFGMPRP the “shrunken log2 fold change” value was -0.0413.
For RRIRGRPPRLPRPRPRPPDHPRP, the “shrunken log2 fold change” value was 0.982.
RRIRQRPPRLPRPRPRPDPHPRP was tested, and the “shrunken log2 fold change” value was -0.0406.
With RRIRVRPPRLPRPRPRPPYCPRP the “shrunken log2 fold change” value was -0.0177.
RRIRQRPPRLPRPRPRPPWYPRP was tested, and the “shrunken log2 fold change” value was -0.226.
In the case of RRIRFRPPRLPRPRPRPCPTPRP, the “shrunken log2 fold change” value was -0.0449.
In the case of RRIRMRPPRLPRPRPRPTALPRP, the “shrunken log2 fold change” value was 0.33.
RRIRVRPPRLPRPRPRPFGAPRP was tested, and the “shrunken log2 fold change” value was 0.258.
With RRIRVRPPRLPRPRPRPQERPRP the “shrunken log2 fold change” value was -0.119.
For RRIRIRPPRLPRPRPRPILSPRP, the “shrunken log2 fold change” value was -0.421.
RRIRRRPPRLPRPRPRPKRAPRP was tested, and the “shrunken log2 fold change” value was 0.52.
RRIRMRPPRLPRPRPRPWAHPRP was tested, and the “shrunken log2 fold change” value was -0.091.
In the case of RRIRQRPPRLPRPRPRPVDQPRP, the “shrunken log2 fold change” value was 0.0619.
For RRIRFRPPRLPRPRPRPGNLPRP, the “shrunken log2 fold change” value was -0.13.
RRIRFRPPRLPRPRPRPHVKPRP was tested, and the “shrunken log2 fold change” value was -0.0318.
In the case of RRIRQRPPRLPRPRPRPLWVPRP, the “shrunken log2 fold change” value was 0.221.
With RRIRWRPPRLPRPRPRPWGNPRP the “shrunken log2 fold change” value was 0.149.
RRIRCRPPRLPRPRPRPEAQPRP was tested, and the “shrunken log2 fold change” value was 0.704.
In the case of RRIRERPPRLPRPRPRPDMTPRP, the “shrunken log2 fold change” value was 0.133.
RRIRWRPPRLPRPRPRPCEQPRP was tested, and the “shrunken log2 fold change” value was 0.263.
With RRIRVRPPRLPRPRPRPPHTPRP the “shrunken log2 fold change” value was 0.0516.
With RRIRYRPPRLPRPRPRPPWAPRP the “shrunken log2 fold change” value was 0.449.
RRIRTRPPRLPRPRPRPYTTPRP was tested, and the “shrunken log2 fold change” value was -0.718.
RRIRNRPPRLPRPRPRPIGLPRP was tested, and the “shrunken log2 fold change” value was -0.123.
With RRIRLRPPRLPRPRPRPIQDPRP the “shrunken log2 fold change” value was -0.105.
For RRIRYRPPRLPRPRPRPPYMPRP, the “shrunken log2 fold change” value was -0.43.
RRIRRRPPRLPRPRPRPWGMPRP was tested, and the “shrunken log2 fold change” value was 0.137.
With RRIRDRPPRLPRPRPRPALPPRP the “shrunken log2 fold change” value was 0.328.
For RRIRQRPPRLPRPRPRPTMGPRP, the “shrunken log2 fold change” value was -0.0283.
RRIRCRPPRLPRPRPRPDYIPRP was tested, and the “shrunken log2 fold change” value was 0.0495.
In the case of RRIRARPPRLPRPRPRPFTIPRP, the “shrunken log2 fold change” value was -0.142.
With RRIRSRPPRLPRPRPRPEIAPRP the “shrunken log2 fold change” value was 0.00181.
RRIRWRPPRLPRPRPRPCAGPRP was tested, and the “shrunken log2 fold change” value was 0.0556.
With RRIRGRPPRLPRPRPRPFAVPRP the “shrunken log2 fold change” value was 0.396.
With RRIRKRPPRLPRPRPRPVTAPRP the “shrunken log2 fold change” value was 0.147.
With RRIRTRPPRLPRPRPRPEMKPRP the “shrunken log2 fold change” value was 0.258.
With RRIRQRPPRLPRPRPRPATVPRP the “shrunken log2 fold change” value was 0.239.
With RRIRFRPPRLPRPRPRPDQEPRP the “shrunken log2 fold change” value was -0.0176.
RRIRMRPPRLPRPRPRPAGSPRP was tested, and the “shrunken log2 fold change” value was 0.2.
In the case of RRIRCRPPRLPRPRPRPVAKPRP, the “shrunken log2 fold change” value was 0.275.
RRIRGRPPRLPRPRPRPMSNPRP was tested, and the “shrunken log2 fold change” value was 0.473.
In the case of RRIRKRPPRLPRPRPRPQQPPRP, the “shrunken log2 fold change” value was -0.041.
In the case of RRIRLRPPRLPRPRPRPKKPPRP, the “shrunken log2 fold change” value was 0.0873.
For RRIRARPPRLPRPRPRPYAPPRP, the “shrunken log2 fold change” value was 0.162.
For RRIRPRPPRLPRPRPRPWNNPRP, the “shrunken log2 fold change” value was -0.561.
With RRIRKRPPRLPRPRPRPMREPRP the “shrunken log2 fold change” value was 1.4.
In the case of RRIRERPPRLPRPRPRPQDPPRP, the “shrunken log2 fold change” value was -0.232.
With RRIRKRPPRLPRPRPRPCTIPRP the “shrunken log2 fold change” value was -0.204.
RRIRMRPPRLPRPRPRPPLHPRP was tested, and the “shrunken log2 fold change” value was 0.691.
In the case of RRIRERPPRLPRPRPRPQMKPRP, the “shrunken log2 fold change” value was -0.568.
RRIRRRPPRLPRPRPRPVAHPRP was tested, and the “shrunken log2 fold change” value was 0.605.
For RRIRDRPPRLPRPRPRPRESPRP, the “shrunken log2 fold change” value was 0.583.
In the case of RRIRCRPPRLPRPRPRPFICPRP, the “shrunken log2 fold change” value was -0.57.
In the case of RRIRIRPPRLPRPRPRPLGYPRP, the “shrunken log2 fold change” value was -0.303.
RRIRLRPPRLPRPRPRPTRGPRP was tested, and the “shrunken log2 fold change” value was 0.298.
With RRIRLRPPRLPRPRPRPSPEPRP the “shrunken log2 fold change” value was 0.00229.
In the case of RRIRPRPPRLPRPRPRPGSQPRP, the “shrunken log2 fold change” value was 0.127.
For RRIRTRPPRLPRPRPRPAGFPRP, the “shrunken log2 fold change” value was -0.0588.
RRIRTRPPRLPRPRPRPPCHPRP was tested, and the “shrunken log2 fold change” value was -0.164.
With RRIRKRPPRLPRPRPRPNPWPRP the “shrunken log2 fold change” value was 0.00515.
For RRIRDRPPRLPRPRPRPCRRPRP, the “shrunken log2 fold change” value was -0.155.
With RRIRRRPPRLPRPRPRPVAKPRP the “shrunken log2 fold change” value was 0.386.
With RRIRMRPPRLPRPRPRPQEKPRP the “shrunken log2 fold change” value was 0.01.
RRIRMRPPRLPRPRPRPKPHPRP was tested, and the “shrunken log2 fold change” value was 1.19.
With RRIRIRPPRLPRPRPRPPNCPRP the “shrunken log2 fold change” value was -1.06.
With RRIRDRPPRLPRPRPRPHFCPRP the “shrunken log2 fold change” value was 0.23.
In the case of RRIRYRPPRLPRPRPRPGPIPRP, the “shrunken log2 fold change” value was -0.0295.
With RRIRARPPRLPRPRPRPYCKPRP the “shrunken log2 fold change” value was -0.376.
With RRIRFRPPRLPRPRPRPHNHPRP the “shrunken log2 fold change” value was -0.835.
In the case of RRIRPRPPRLPRPRPRPSQTPRP, the “shrunken log2 fold change” value was 0.265.
RRIRVRPPRLPRPRPRPHDFPRP was tested, and the “shrunken log2 fold change” value was -0.00674.
With RRIRTRPPRLPRPRPRPWRIPRP the “shrunken log2 fold change” value was 0.025.
With RRIRLRPPRLPRPRPRPCDSPRP the “shrunken log2 fold change” value was -0.165.
With RRIRRRPPRLPRPRPRPSAGPRP the “shrunken log2 fold change” value was 0.392.
With RRIRTRPPRLPRPRPRPPCNPRP the “shrunken log2 fold change” value was -0.0091.
In the case of RRIRMRPPRLPRPRPRPYYIPRP, the “shrunken log2 fold change” value was -0.227.
In the case of RRIRMRPPRLPRPRPRPPATPRP, the “shrunken log2 fold change” value was 2.56.
With RRIRDRPPRLPRPRPRPGPWPRP the “shrunken log2 fold change” value was 0.287.
With RRIRTRPPRLPRPRPRPVEWPRP the “shrunken log2 fold change” value was 0.168.
RRIRERPPRLPRPRPRPLWMPRP was tested, and the “shrunken log2 fold change” value was 0.00675.
With RRIRTRPPRLPRPRPRPEQQPRP the “shrunken log2 fold change” value was 0.436.
In the case of RRIRCRPPRLPRPRPRPGEVPRP, the “shrunken log2 fold change” value was 0.212.
For RRIRCRPPRLPRPRPRPDYTPRP, the “shrunken log2 fold change” value was -0.442.
With RRIRSRPPRLPRPRPRPIPPPRP the “shrunken log2 fold change” value was -0.0431.
For RRIRWRPPRLPRPRPRPWHLPRP, the “shrunken log2 fold change” value was -0.00636.
For RRIRMRPPRLPRPRPRPGPPPRP, the “shrunken log2 fold change” value was 1.23.
For RRIRLRPPRLPRPRPRPFNPPRP, the “shrunken log2 fold change” value was -0.349.
For RRIRLRPPRLPRPRPRPYVYPRP, the “shrunken log2 fold change” value was -0.706.
RRIRDRPPRLPRPRPRPWRNPRP was tested, and the “shrunken log2 fold change” value was -0.0018.
With RRIRVRPPRLPRPRPRPASNPRP the “shrunken log2 fold change” value was -0.0943.
For RRIRCRPPRLPRPRPRPQITPRP, the “shrunken log2 fold change” value was -0.639.
In the case of RRIRNRPPRLPRPRPRPLAIPRP, the “shrunken log2 fold change” value was 0.0449.
With RRIRFRPPRLPRPRPRPKQRPRP the “shrunken log2 fold change” value was 0.384.
For RRIRARPPRLPRPRPRPNFLPRP, the “shrunken log2 fold change” value was 0.0215.
With RRIRHRPPRLPRPRPRPWHTPRP the “shrunken log2 fold change” value was -0.566.
With RRIRPRPPRLPRPRPRPPQYPRP the “shrunken log2 fold change” value was 0.189.
RRIRMRPPRLPRPRPRPRLTPRP was tested, and the “shrunken log2 fold change” value was 1.13.
With RRIRARPPRLPRPRPRPSECPRP the “shrunken log2 fold change” value was 0.145.
In the case of RRIRKRPPRLPRPRPRPPWHPRP, the “shrunken log2 fold change” value was 0.349.
For RRIRLRPPRLPRPRPRPMIIPRP, the “shrunken log2 fold change” value was -0.407.
In the case of RRIRPRPPRLPRPRPRPCKCPRP, the “shrunken log2 fold change” value was -0.275.
In the case of RRIRQRPPRLPRPRPRPSQYPRP, the “shrunken log2 fold change” value was -0.244.
With RRIRGRPPRLPRPRPRPKADPRP the “shrunken log2 fold change” value was 1.29.
With RRIRQRPPRLPRPRPRPSTRPRP the “shrunken log2 fold change” value was 0.00434.
With RRIRFRPPRLPRPRPRPFKHPRP the “shrunken log2 fold change” value was -0.2.
With RRIRFRPPRLPRPRPRPMVFPRP the “shrunken log2 fold change” value was -0.0469.
With RRIRHRPPRLPRPRPRPGSMPRP the “shrunken log2 fold change” value was -0.099.
For RRIRARPPRLPRPRPRPFLHPRP, the “shrunken log2 fold change” value was 0.0154.
RRIRVRPPRLPRPRPRPEVGPRP was tested, and the “shrunken log2 fold change” value was 0.175.
